Here are results for 1 molecule from patent US20120030779A1 (UNIVERSITY OF UTAH RESEARCH FOUNDTION, published 2012).

The test addresses T1, glucose-6-phosphate dehydrogenase (G6PD), mouse heart (mouse, UniProt Q00612 2-515).
T1 construct: Endogenous protein immunoprecipitated or detected with rabbit anti-G6PD; also called G6PDH
As to the kind of experiment: co-immunoprecipitation (anti-G6PD IP, anti-CryAB blot) from NTg mouse heart homogenate.

T1 sequence (Q00612 2-515 limits assumed): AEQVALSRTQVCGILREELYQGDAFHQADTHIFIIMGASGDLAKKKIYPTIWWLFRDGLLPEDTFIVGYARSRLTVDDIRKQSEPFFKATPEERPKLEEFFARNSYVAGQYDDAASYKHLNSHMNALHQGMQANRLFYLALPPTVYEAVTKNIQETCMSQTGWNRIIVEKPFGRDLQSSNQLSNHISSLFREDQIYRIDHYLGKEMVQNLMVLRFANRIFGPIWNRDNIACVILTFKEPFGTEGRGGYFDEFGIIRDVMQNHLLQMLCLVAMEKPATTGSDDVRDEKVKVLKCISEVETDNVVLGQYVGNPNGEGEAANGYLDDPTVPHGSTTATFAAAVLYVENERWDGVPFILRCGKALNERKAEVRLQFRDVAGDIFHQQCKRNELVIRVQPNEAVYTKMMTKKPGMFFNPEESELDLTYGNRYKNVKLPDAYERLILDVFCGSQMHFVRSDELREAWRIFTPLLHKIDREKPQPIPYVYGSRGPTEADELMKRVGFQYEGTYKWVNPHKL
Protocol: Immunoprecipitation and Immunoblotting: Heart homogenates were first prepared in TBS (10 mM Tris, 150 mM NaCl, pH 7.4) and centrifuged at 10,000 g for 15 minutes at 4° C.

B1: mouse alphaB-crystallin (endogenous CryAB of non-transgenic mouse heart) (other, UniProt P23927 1-175, looked up)
chain: MDIAIHHPWIRRPFFPFHSPSRLFDQFFGEHLLESDLFSTATSLSPFYLRPPSFLRAPSWIDTGLSEMRLEKDRFSVNLDVKHFSPEELKVKVLGDVIEVHGKHEERQDEHGFISREFHRKYRIPADVDPLTITSSLSSDGVLTVNGPRKQVSGPERTIPITREEKPAVAAAPKK
notes: Only CryAB present in NTg heart extracts; also called CryAB (NTg)
As to B1, the binding result is on record as “no binding”.
